Assay [1] deals with T1, GST-talin head Lys^357->Gln mutant (human, UniProt Q9Y490 1-435).
T1 construct: Talin head mutant in pET42; also called mutant GST-talin; not shown: GST (and further tags) of the pET42 vector
The assay is described as follows: GST pull-down. As to the method: (§1) Purified GST-talin head proteins were incubated with PIPKIγ661 tails or β1-integrin tail, together with Glutathione SEPHAROSE™ 4 Fast Flow (Amersham Biosciences, Piscataway, N.J.), in Buffer B (PBS, 0.2% NP-40, 2 mM DTT) at 4° C. for 4 hours. The beads were washed three times with Buffer B and analyzed by western blot. For competition assays, GST-talin head proteins were incubated with peptides or competing proteins for 2 hours, then the binding proteins were added and the mixtures were incubated for another 4 hours.

In assay [2] the target is T2, GST-talin head Arg^358->Gln mutant (human, UniProt Q9Y490 1-435).
T2 construct: Talin head mutant in pET42; also called mutant GST-talin; not shown: GST (and further tags) of the pET42 vector
The assay can be described thus: GST pull-down. As for the experimental part: as §1

Ends that are not written are not given here.

T2 sequence (Q9Y490 other isoform, or with tags, fused parts or gaps mutant): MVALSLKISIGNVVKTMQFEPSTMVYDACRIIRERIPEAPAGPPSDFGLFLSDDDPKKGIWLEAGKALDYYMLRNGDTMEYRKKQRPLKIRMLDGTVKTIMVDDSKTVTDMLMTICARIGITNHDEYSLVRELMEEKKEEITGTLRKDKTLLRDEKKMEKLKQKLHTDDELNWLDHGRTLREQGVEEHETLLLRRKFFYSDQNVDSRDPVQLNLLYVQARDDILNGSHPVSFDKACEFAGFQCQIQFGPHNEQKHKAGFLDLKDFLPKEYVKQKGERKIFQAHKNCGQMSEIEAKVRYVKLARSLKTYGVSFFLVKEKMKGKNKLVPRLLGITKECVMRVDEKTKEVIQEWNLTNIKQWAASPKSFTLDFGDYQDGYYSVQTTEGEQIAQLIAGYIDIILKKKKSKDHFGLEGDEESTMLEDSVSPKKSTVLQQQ
T1 sequence (Q9Y490 other isoform, or with tags, fused parts or gaps mutant): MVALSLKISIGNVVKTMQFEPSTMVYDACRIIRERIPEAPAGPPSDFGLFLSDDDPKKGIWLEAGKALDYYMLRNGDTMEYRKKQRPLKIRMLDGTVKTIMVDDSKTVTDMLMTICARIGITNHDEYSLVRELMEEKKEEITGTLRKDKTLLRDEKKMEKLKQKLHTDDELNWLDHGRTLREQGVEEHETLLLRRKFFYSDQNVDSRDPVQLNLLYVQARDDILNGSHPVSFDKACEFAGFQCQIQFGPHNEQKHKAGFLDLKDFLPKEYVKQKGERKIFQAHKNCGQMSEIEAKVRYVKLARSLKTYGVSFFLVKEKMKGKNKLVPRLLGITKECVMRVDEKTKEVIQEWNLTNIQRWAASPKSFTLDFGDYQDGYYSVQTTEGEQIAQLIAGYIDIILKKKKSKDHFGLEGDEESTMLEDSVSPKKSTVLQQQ

B1: His-tagged mouse β1-integrin tail (receptor, UniProt P09055 752-798, looked up)
chain: KLLMIIHDRREFAKFEKEKMNAKWDTGENPIYKSAVTTVVNPKYEGK
modifications: not fully specified (N-terminus); also: N-terminal His tag of pET28 vector, sequence not given here
notes: domain: tail; also called His-β1-integrin tail; His-β-integrin; not shown: His tag of the pET28 vector
With B1, the binding result in assay [1] and in assay [2] was “no binding” in each case.

For the origin of these results see US20040265295A1 (WISCONSIN ALUMNI RESEARCH FOUNDATION, published 2004).
